The results in this text go back to the Human Domainome abundance scans (Beltran et al. 2025).

First the molecules themselves.
B1: CD2-associated protein, residues 1 to 59; numbered along this chain, Q9Y5K6 (parent)
chain: MVDYIVEYDYDAVHDDELTIRVGEIIRNVKKLQEEGWLEGELNGRRGMFPDNFVKEIKR

± gives the uncertainty stated by the source.

This data set covers variants of B1. The experiment in a line: abundance fitness (aPCA) (normalised: wild type 0, dead -1); higher = more abundant; growth selection in yeast, the domain comes from the species named. The following applies: Homo sapiens.
Consider MVDYIVEYDYDAVHDDELTIRVGGIIRNVKKLQEEGWLEGELNGRRGMFPDNFVKEIKR, for which the abundance fitness was -0.341 ± 0.073.

Consider MVDYIVEYDYDAVHDDELTIRVGCIIRNVKKLQEEGWLEGELNGRRGMFPDNFVKEIKR, for which the abundance fitness is -0.625 ± 0.13. Turning to MSDYIVEYDYDAVHDDELTIRVGEIIRNVKKLQEEGWLEGELNGRRGMFPDNFVKEIKR, the abundance fitness was -0.029 ± 0.15. In the case of MVDYIVEYDYDAVHDDELTIRVGEIIRNVKKLQEEGWLEGELNGQRGMFPDNFVKEIKR, the abundance fitness was -0.009 ± 0.13. For MVDYIVEYDYDAVHDDELTIRVGEIIRNVKKLQEEGWLEGELNGIRGMFPDNFVKEIKR the value was -0.191 ± 0.12; for MVDYIVEYDYDAVHDDELTIRYGEIIRNVKKLQEEGWLEGELNGRRGMFPDNFVKEIKR, -0.301 ± 0.25.

MVDYIVEYDYDAVHDDELTIRFGEIIRNVKKLQEEGWLEGELNGRRGMFPDNFVKEIKR: the abundance fitness is -0.17 ± 0.21. As for MVDYIVEYDYDAVHDDELTIRHGEIIRNVKKLQEEGWLEGELNGRRGMFPDNFVKEIKR, the figure is -0.201 ± 0.18; as for MVDYIVEYDYDAVHDDELTIRVGEIIRNVKKLQEEGWLEGELNGRRGMFPDNFVKEIKT, -0.011 ± 0.32.

As to MVDYIVEYDYDAVHDDELTIRVGEIIRNVKKLQEEGWLEGELNGRRGMFPDNFVKEIKK, the abundance fitness turned out to be 0.012 ± 0.14. Take MVDYIVEYDYDAVHDDELTIRVGEIIRNVKKLQEEGWLEGELCGRRGMFPDNFVKEIKR: the abundance fitness is -0.383 ± 0.11. For MVDYIVEYDYDAVHDDELTIRVGEIIRNVKKLQEEGWLEGELNGRRGPFPDNFVKEIKR the value was -0.524 ± 0.22; for MVDYIVEYDYDAVHDDELTIRVGEIIRNVKKLQEEGWLEGELNGRRGAFPDNFVKEIKR, 0.045 ± 0.086; for MVDYIVEYDYDAVHDDLLTIRVGEIIRNVKKLQEEGWLEGELNGRRGMFPDNFVKEIKR, -0.882 ± 0.25. For MVDYIVEYDYDAVHDDCLTIRVGEIIRNVKKLQEEGWLEGELNGRRGMFPDNFVKEIKR the value was -0.407 ± 0.27; for MVDYIVEYDYDAVHDDELTIRVGEIIRNVKKLQEECWLEGELNGRRGMFPDNFVKEIKR, -0.403 ± 0.11. On to MVDYIVEYDYDAVHDDELTIRVGEIIRNVKKLQEESWLEGELNGRRGMFPDNFVKEIKR, for which the abundance fitness is -0.352 ± 0.08. Consider MVDYIVEYDYYAVHDDELTIRVGEIIRNVKKLQEEGWLEGELNGRRGMFPDNFVKEIKR, for which the abundance fitness was -0.242 ± 0.14. As to MVDYIEEYDYDAVHDDELTIRVGEIIRNVKKLQEEGWLEGELNGRRGMFPDNFVKEIKR, the abundance fitness was -0.96 ± 0.33. In the case of MVDYIVNYDYDAVHDDELTIRVGEIIRNVKKLQEEGWLEGELNGRRGMFPDNFVKEIKR, the abundance fitness is -0.311 ± 0.17. As for MVDYIVYYDYDAVHDDELTIRVGEIIRNVKKLQEEGWLEGELNGRRGMFPDNFVKEIKR, the figure is -0.18 ± 0.18; as for MVDYIVIYDYDAVHDDELTIRVGEIIRNVKKLQEEGWLEGELNGRRGMFPDNFVKEIKR, 0.025 ± 0.15; as for MVDYIVEYDYDAVHDDELTIRVGEIIRNVKKLQEEGWLEGELNGRRGMFPDIFVKEIKR, -0.141 ± 0.18. Regarding MVDYIVEYDYDAVHDDELTIRVGEIIRNVKKLQEEGWLEGELNGRRGMFPDKFVKEIKR, the abundance fitness was 0.071 ± 0.096. With MVDYIVEYDYDAVHDDELTIRVGEIIRNVKKLQEEGWLEGELNGRRGMFPDQFVKEIKR, the abundance fitness was -0.127 ± 0.13.

Turning to MVDYIVEYDYDAVHDDELGIRVGEIIRNVKKLQEEGWLEGELNGRRGMFPDNFVKEIKR, the abundance fitness was -0.792 ± 0.17. Turning to MVDYIVEYDYDAVHDDELRIRVGEIIRNVKKLQEEGWLEGELNGRRGMFPDNFVKEIKR, the abundance fitness was -0.66 ± 0.16. With MVDYIVEYDYDAVHDDELWIRVGEIIRNVKKLQEEGWLEGELNGRRGMFPDNFVKEIKR, the abundance fitness is -0.929 ± 0.23.

For the variant MVDYIVEYDYDAVHDDELCIRVGEIIRNVKKLQEEGWLEGELNGRRGMFPDNFVKEIKR, the abundance fitness was -0.384 ± 0.11. Regarding MVDYIVEYDMDAVHDDELTIRVGEIIRNVKKLQEEGWLEGELNGRRGMFPDNFVKEIKR, the abundance fitness is -0.667 ± 0.11. As for MVDYIVEYDRDAVHDDELTIRVGEIIRNVKKLQEEGWLEGELNGRRGMFPDNFVKEIKR, the figure is -0.014 ± 0.062; as for MVDYIVEYGYDAVHDDELTIRVGEIIRNVKKLQEEGWLEGELNGRRGMFPDNFVKEIKR, -0.242 ± 0.096; as for MVDYIVEYDYDAVHDDELTIRVGEIIRNVKKVQEEGWLEGELNGRRGMFPDNFVKEIKR, 0.074 ± 0.24. On to MVDYIVEYDYDAVHDDELTIRVGEIIRNVKKIQEEGWLEGELNGRRGMFPDNFVKEIKR, for which the abundance fitness was -0.238 ± 0.15. For MVDYIVEYDYDAVHDDELTIRVGEIIDNVKKLQEEGWLEGELNGRRGMFPDNFVKEIKR the value was -0.838 ± 0.18; for MVDYIVEYDYDAVHDDELTIRVGEIIANVKKLQEEGWLEGELNGRRGMFPDNFVKEIKR, -0.228 ± 0.079; for MVDYIVEYDYDAVHDDELTIRVGEIIRNVKKLQEEGWLEGEHNGRRGMFPDNFVKEIKR, -0.297 ± 0.15.

Regarding MVDYIVEYDYDAVHDDELTIRVGEIIRNVKKLQEEGWLEGEYNGRRGMFPDNFVKEIKR, the abundance fitness was -0.839 ± 0.43. As for MVDYIVEYDYDAVHSDELTIRVGEIIRNVKKLQEEGWLEGELNGRRGMFPDNFVKEIKR, the figure is -0.098 ± 0.06.

With MVDYIVEYDYDAVHLDELTIRVGEIIRNVKKLQEEGWLEGELNGRRGMFPDNFVKEIKR, the abundance fitness was -0.142 ± 0.054. On to MVDYIVEYDYDAVHDDELTIRVGEIIRNVKKLQNEGWLEGELNGRRGMFPDNFVKEIKR, for which the abundance fitness was determined as 0.009 ± 0.16. For MVDYIVEYDYDAVHDDELTIRVGEIIRNVKKLQPEGWLEGELNGRRGMFPDNFVKEIKR, the abundance fitness is -0.152 ± 0.19. As to MVDYIVEYDYDAVHDDELTIRVGEIIRNVKKLQVEGWLEGELNGRRGMFPDNFVKEIKR, the abundance fitness is -0.006 ± 0.091. For MVDYIVEYDYDAVHDDECTIRVGEIIRNVKKLQEEGWLEGELNGRRGMFPDNFVKEIKR the value was -0.661 ± 0.49. As for MVDYIVEYDYDAVHDDEVTIRVGEIIRNVKKLQEEGWLEGELNGRRGMFPDNFVKEIKR, the figure is -0.499 ± 0.14.
